Measured values reported in US20170247448A1 (INTRINSIC LIFESCIENCES, published 2017).

How the values were obtained:
[1] = target: T1, MAb 583; assay: C-ELISA with purified MAb 583; competitor NT-biotin hepcidin-25
T1 construct: Murine monoclonal, Protein A purified

[2] = target: T2, BAP070-01 (human-mouse chimeric MAb 583); assay: C-ELISA, BAP070-01 supernatant on Protein G; competitor NT-biotin hepcidin-25; four parameter fit
T2 construct: used as CHO cell supernatant; also called BAP070-1
Method: The plate was washed with TBST and one (1) ng/well of NT-biotin hepcidin-25 was mixed with different amounts (0-100 ng) of synthetic hepcidin-25 standard in TBST, 0.25% BLOTTO and added onto the plate to bind competitively. The plate was washed with TBST and SA-HRP (1:2500) added and allowed to bind for 1 hour.
The plate was washed with TBST and […] substrate added and the reaction stopped after 10 minutes with stop solution. Absorbance at 450 nm was measured on a spectrophotometer.

[3] = target: T3, BAP070-hum01; assay: C-ELISA: goat anti-human Fc coated plate, antibody captured (30 ng/well per title of FIG. 20D), unlabelled hepcidin titrated (ng/well per axis of FIG. 20D) against a labelled tracer not named for this figure; OD = tracer left on the antibody
T3 construct: Expressed as soluble IgG1 in CHO cells, tested as supernatant; The entries stop inside FR4 (...WGQG / ...FG); also called humanized hit 1
T3 sequence (VH, as listed by the source, chain 1 of 2): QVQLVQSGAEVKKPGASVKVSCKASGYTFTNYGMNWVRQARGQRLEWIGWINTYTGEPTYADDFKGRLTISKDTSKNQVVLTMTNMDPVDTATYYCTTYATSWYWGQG
T3 sequence (VL, as listed by the source, chain 2 of 2): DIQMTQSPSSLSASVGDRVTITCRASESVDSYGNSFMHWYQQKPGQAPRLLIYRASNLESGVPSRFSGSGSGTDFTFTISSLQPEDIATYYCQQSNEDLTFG

[4] = target: T4, BAP070-hum02; assay: as above
T4 construct: Expressed as soluble IgG1 in CHO cells, tested as supernatant; The entries stop inside FR4
T4 sequence (VL, as listed by the source, chain 2 of 2): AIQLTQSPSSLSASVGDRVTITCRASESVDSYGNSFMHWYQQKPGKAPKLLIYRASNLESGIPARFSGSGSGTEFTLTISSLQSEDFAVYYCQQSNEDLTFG

[5] = target: T5, BAP070-hum06; assay: as above
T5 construct: Expressed as soluble IgG1 in CHO cells, tested as supernatant; The entries stop inside FR4
T5 sequence (VH, as listed by the source, chain 1 of 2): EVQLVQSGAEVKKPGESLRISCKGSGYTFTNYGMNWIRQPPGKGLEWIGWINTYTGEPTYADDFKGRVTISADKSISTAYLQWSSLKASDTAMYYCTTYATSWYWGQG
T5 sequence (VL, as listed by the source, chain 2 of 2): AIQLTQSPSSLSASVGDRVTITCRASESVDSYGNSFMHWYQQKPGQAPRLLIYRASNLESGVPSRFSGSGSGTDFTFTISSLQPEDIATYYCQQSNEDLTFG

[6] = target: T6, BAP070-hum03; assay: as above
T6 construct: Expressed as soluble IgG1 in CHO cells, tested as supernatant; The entries stop inside FR4
T6 sequence (VH, as listed by the source, chain 1 of 2): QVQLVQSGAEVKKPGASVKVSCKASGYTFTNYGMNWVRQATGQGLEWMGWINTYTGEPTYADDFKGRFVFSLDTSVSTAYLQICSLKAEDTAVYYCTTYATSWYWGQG

[7] = target: T7, BAP070-hum05; assay: as above
T7 construct: Expressed as soluble IgG1 in CHO cells, tested as supernatant; The entries stop inside FR4

[8] = target: T8, BAP070-hum04; assay: as above
T8 construct: Expressed as soluble IgG1 in CHO cells, tested as supernatant; The entries stop inside FR4
T8 sequence (VL, as listed by the source, chain 2 of 2): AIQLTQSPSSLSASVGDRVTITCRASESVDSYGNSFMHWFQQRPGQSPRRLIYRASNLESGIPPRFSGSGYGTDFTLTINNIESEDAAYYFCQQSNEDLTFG

[9] = target: T2, BAP070-01 (human-mouse chimeric MAb 583); assay: as above
[10] = target: T3, BAP070-hum01; assay: C-ELISA: goat anti-human Fc coated plate, antibody captured, unlabelled hepcidin titrated against a labelled tracer not named for this figure; the EC50 row has 7 cells under 8 columns and is assigned in order to the 7 antibodies with human Fc
[11] = target: T4, BAP070-hum02; assay: as above
[12] = target: T5, BAP070-hum06; assay: as above
[13] = target: T6, BAP070-hum03; assay: as above
[14] = target: T8, BAP070-hum04; assay: as above

T2 sequence (VH, as listed by the source, chain 1 of 2): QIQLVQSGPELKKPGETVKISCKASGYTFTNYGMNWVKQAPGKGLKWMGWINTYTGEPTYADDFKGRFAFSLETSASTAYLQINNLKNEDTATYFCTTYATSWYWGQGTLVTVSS
T2 sequence (VL, as listed by the source, chain 2 of 2): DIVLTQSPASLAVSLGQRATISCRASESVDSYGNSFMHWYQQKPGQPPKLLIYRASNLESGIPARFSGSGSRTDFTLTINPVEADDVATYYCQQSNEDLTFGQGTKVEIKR
T1 sequence (VH, as listed by the source, chain 1 of 2): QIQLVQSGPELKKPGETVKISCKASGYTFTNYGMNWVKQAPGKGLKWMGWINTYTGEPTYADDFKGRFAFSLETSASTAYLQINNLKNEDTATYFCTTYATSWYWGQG
T1 sequence (VL, as listed by the source, chain 2 of 2): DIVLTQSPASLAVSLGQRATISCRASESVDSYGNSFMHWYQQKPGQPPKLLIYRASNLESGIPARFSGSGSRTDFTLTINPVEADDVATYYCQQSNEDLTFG

- EC50 [1]: ≤ 0.005 µg/mL
- EC50 [2]: 0.054 µg/mL
- OD450 at 0.000 ng/well hepcidin [3]: 0.408
- OD450 at 0.137 ng/well hepcidin [3]: 0.424
- OD450 at 0.412 ng/well hepcidin [3]: 0.415
- OD450 at 1.235 ng/well hepcidin [3]: 0.311
- OD450 at 3.704 ng/well hepcidin [3]: 0.166
- OD450 at 11.111 ng/well hepcidin [3]: 0.0849
- OD450 at 33.333 ng/well hepcidin [3]: 0.0336
- OD450 at 100.000 ng/well hepcidin [3]: 0.0144
- OD450 at 0.000 ng/well hepcidin [4]: 0.812
- OD450 at 0.137 ng/well hepcidin [4]: 0.844
- OD450 at 0.412 ng/well hepcidin [4]: 0.814
- OD450 at 1.235 ng/well hepcidin [4]: 0.539
- OD450 at 3.704 ng/well hepcidin [4]: 0.279
- OD450 at 11.111 ng/well hepcidin [4]: 0.125
- OD450 at 33.333 ng/well hepcidin [4]: 0.0475
- OD450 at 100.000 ng/well hepcidin [4]: 0.0189
- OD450 at 0.000 ng/well hepcidin [5]: 1.11
- OD450 at 0.137 ng/well hepcidin [5]: 1.1
- OD450 at 0.412 ng/well hepcidin [5]: 0.961
- OD450 at 1.235 ng/well hepcidin [5]: 0.72
- OD450 at 3.704 ng/well hepcidin [5]: 0.369
- OD450 at 11.111 ng/well hepcidin [5]: 0.154
- OD450 at 33.333 ng/well hepcidin [5]: 0.0599
- OD450 at 100.000 ng/well hepcidin [5]: 0.0238
- OD450 at 0.000 ng/well hepcidin [6]: 2.13
- OD450 at 0.137 ng/well hepcidin [6]: 2.1
- OD450 at 0.412 ng/well hepcidin [6]: 1.96
- OD450 at 1.235 ng/well hepcidin [6]: 1.48
- OD450 at 3.704 ng/well hepcidin [6]: 0.653
- OD450 at 11.111 ng/well hepcidin [6]: 0.281
- OD450 at 33.333 ng/well hepcidin [6]: 0.0983
- OD450 at 100.000 ng/well hepcidin [6]: 0.0359
- OD450 at 0.000 ng/well hepcidin [7]: 0.972
- OD450 at 0.137 ng/well hepcidin [7]: 0.917
- OD450 at 0.412 ng/well hepcidin [7]: 0.88
- OD450 at 1.235 ng/well hepcidin [7]: 0.625
- OD450 at 3.704 ng/well hepcidin [7]: 0.273
- OD450 at 11.111 ng/well hepcidin [7]: 0.125
- OD450 at 33.333 ng/well hepcidin [7]: 0.0505
- OD450 at 100.000 ng/well hepcidin [7]: 0.0195
- OD450 at 0.000 ng/well hepcidin [8]: 0.433
- OD450 at 0.137 ng/well hepcidin [8]: 0.446
- OD450 at 0.412 ng/well hepcidin [8]: 0.415
- OD450 at 1.235 ng/well hepcidin [8]: 0.301
- OD450 at 3.704 ng/well hepcidin [8]: 0.148
- OD450 at 11.111 ng/well hepcidin [8]: 0.0719
- OD450 at 33.333 ng/well hepcidin [8]: 0.0303
- OD450 at 100.000 ng/well hepcidin [8]: 0.0135
- OD450 at 0.000 ng/well hepcidin [9]: 2.88
- OD450 at 0.137 ng/well hepcidin [9]: 2.77
- OD450 at 0.412 ng/well hepcidin [9]: 2.65
- OD450 at 1.235 ng/well hepcidin [9]: 1.77
- OD450 at 3.704 ng/well hepcidin [9]: 0.826
- OD450 at 11.111 ng/well hepcidin [9]: 0.334
- OD450 at 33.333 ng/well hepcidin [9]: 0.125
- OD450 at 100.000 ng/well hepcidin [9]: 0.0442
- EC50 [10]: 0.0237 µg/mL
- EC50 [11]: 0.0179 µg/mL
- EC50 [12]: 0.0186 µg/mL
- EC50 [13]: 0.0205 µg/mL
- EC50 [14]: 0.0191 µg/mL
B1: Human hepcidin peptide (hepcidin-25) (peptide)
peptide: DTHFPICIFCCGCCHRSKCGMCCKT
notes: Synthetic 25 aa peptide; also called hep-25; Hep-25
